Measurements taken from the supplement of paper PMC9170038.

Tested on: MS2 coat protein
Assay: apparent KD of MS2 coat protein; higher = weaker reporter binding
Settings: Eterna round: R107; input ligand: arginine 13.2 mM
Procedure, shortened: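 Designed RNA switches, transcribed on-chip from Illumina sequencing clusters, were titrated with SNAP-549-labelled MS2 coat protein from 0.7 or 1.5 nM to 3 µM in twofold steps. The solution was 100 mM Tris-HCl pH 7.5, 80 mM KCl, 4 mM MgCl2, with constant ligand or without it. Apparent KD is the median over each design's normalised cluster binding-curve fits.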

Sequence	apparent KD of MS2 coat protein
CCCACAAGCACGGCCGCCACUAUAUUAAUUACUGUCCUAGAACAUGAGGAUCACCCAUGUUAAUGUAGGACCGGGUGCGGGCCCG [theeternabot_exclusion_MS2_Trp_B_7]	9.21 nM
UGGUACAUGGCGGCCGCCACUUCACGUAAAAUAAAAACUUGAGGAACACCCAAGUAAUAAGUUGGGAGGACCGGGUCAUGUACCU	35.3 nM
AAAAGAGGUGGAAGGAGCGGGAGACAUGAGGAUCACCCAUGUGAAGUAACGAAAGGUACAGCCCAGGUAGGUCGCCAUGUCGAAA [qxqamullin]	20.6 nM
GGCCGAUGGUGCGAUACCAGCUUGAGUGUACUGGCCAGGUACAUGAGGAUCACCCAUGUAAGCCCUUGGCAGCGCGUCAAAGGCC [#1 Exclusion - Theophylline B Attempt #20 (HarryS)]	7.09 nM
ACCGCAUCCGUAUAGGAUGCGGCCCAUGAAGGAGCGUGGGAAACCACAGGUAGGUCGCAUGGACAUGAGGAUCACCCAUGUUAUU [Inception]	43.7 nM
UUAUAUAUGCGAAGGAGCGGGAAAUAUAUAUAUAUAAUCCUAACAUGAGGAUCACCCAUGUCCCAGGUAGGUCGCGCAUAUAUAG [12.C]	38 nM
AGACGAGAAGAGGAUUACCCAUGUACAGAAGGAGCGUCGUUGACGACAGGUAGGUCGCUGAGAACAUGAGGAUCACCCAUGUUGA [Arg A Ex t1]	29.9 nM
ACAUGGGUCUGAAGGAGCGCGAUAACAUGAGGAUCACCCAUGUAAAAUGGAACAUGAUAAUCGCAGGUAGGUCGCAGUAAAACCC [Same State Arginine B GF 11]	133 nM
AAUGUGAAGGCGGCCGCCACUGAUAAUAGACAUGAGGAUCACCCAUGUAUAAAUCCUCAAUAAGACAGGACCGGGCCAACUACGU [Exclusion Tryptophan B GF 1]	93 nM
AACGAGUGGCGGCCAUUGGGUGAUCCUCUACGAGGACCGGUACGGCCGCCACUCGAUAACAUGAGGAUCACCCAUGUGCCGAUAA [|T'-M'-Trp-Ms2|_Design10b]	42.3 nM
AAUAAGCAGCUGCAAGGUGAUCCUGCAGAUACCAGCUAGGAAACUAGCCCUUGGCAGCUGCAACAUGAGGAUCACCCAUGUAAUA [(T)'-(M)'-(T1)-(T2)-(M1)-(M2)_Design6]	26.2 nM
AAGGUGAUCCGUGAUACCAGCUCAACAUGAGGAUCACCCAUGUAAGCCUGGAAACAGGCGAGCCCUUGGCAGCACGGUUGCCAAG [(M)'-(Theo1)-(Ms2)-(Theo2)-(M'')-(T2)'_Design1]	38.6 nM
UUCGUUGGCGAUCUGGGUUUACCAGAUCGGCGAGGACCGGUACGGCCGCCACUCGUGUUUUCUUUACAUGAGGAUCACCCAUGUU [SSTA #3]	16.9 nM
UCGCUCUGGGUGGGAUCCGGAGAUGUGGAAGGAGCGCUGGUUACAGCAGGUAGGUCGCCAACGGACAUGAGGAUCACCCAUGUAC [Same State - Arginine A (Freestyle 16)]	53.3 nM
CAAGAGUUGUACAUUGUGAGGCGUCGGGAACGAGGACCGGUACGGCCGCCACUCGAAAAUUAACAUGAGGAUCACCCAUGUACAC [theeternabot_exclusion_MS2_Trp_A_35]	36.1 nM
ACAUGAGGAUCACCCAUGUCAAGGCACGAUACCAGCUGAUCCCGUGGCCCUUGGCAGCGUCACGUUUGGUCCCGCGGAUGACACG [zczmullin]	38.4 nM
UGAUAUGUAGGAAGGAGCGCAUACUUCACAUGAGGAUCACCCAUGUCAAGACGUGAGUCAGUGCAGGUAGGUCGCCUAGUUAUGA [Same State - Arginine B (Freestyle 20)]	30.2 nM
AAUGUAUGGCACAUGAGGAUCACCCAUGUGCGAGGACCGGUACGGCCGCCACUCGGUCCUGGGAUCUUAAUACUAUACAUUAAUG [XTryp A #19]	10.3 nM
AAACGUUGCUGCGAUACCAGACAUGAGGAUCACCCAUGUACCAAGAAAACGUACAUAAAUGUCCCUUGGCAGCGCAGCAACGAAA [MAT - Exclusion Theophlline B - Mod of Eli - D28]	141 nM
GGUGGGAGCAACGAUACCAGCUACAUGAGGAUCACCCAUGUGGAAUGGGAGUCAACAGCGAGCCCUUGGCAGCGUUAGACCCAAA [Bebeeserdi]	13.2 nM
UCACGUGGGAAUGAUACCAGCCACAUGAGGAUCACCCAUGUGCAUGGUGUGAGCUUCACGGGCCCUUGGCAGCAUUUCAAGUCGC [Agelaus]	39.9 nM
ACAUUUAACUGAAGGAGCGUGAAUAACAUGAGGAUCACCCAUGUAACUUAGAUUCUUAUAUCACAGGUAGGUCGCAGACUAAUGA [JR_ExcArginiB_Sub012]	24.9 nM
AACAUGAGGAUCACCCAUGUCCUCGUGUACCGAGGACCGGUACGGCCGCCACUCGGUUCUCGCGAGGAUGGUCAAAGACUAUCCA [Omei Trp A SS B v4]	202 nM
UAAUAUCACAUAUUAUGGGUGUAAUGUGAUACCAGCUAGGAAACUAGCCCUUGGCAGCACAUGAGGAUCACCCAUGUAAGCUGUA [(T1)'-(M)'-(T1)-(T2)-(M1)-(M2)-(T2)'_Design4_2/19/17]	29.1 nM
AACACACCAAAUGAUACCAGCUACAACAUGAUACAAAACCACAUGAGGAUCACCCAUGUAAGCCCUUGGCAGCAUACUACUGUAA [theeternabot_exclusion_MS2_Theo_B_40]	16.9 nM
GACCUUGCGGGCGCCCGCAAGGUUGCGGAUACCAGCGAGGUCCAUCGCCCUUGGCAGCCGAACAUGAGGAUCACCCAUGUCGGAC [Same State - Theophylline A Attempt #3 (HarryS)]	10.3 nM
GGAUAGGACACGGCCGCCACUGCGGCUAGAUACUAGCACAUUUCCUCACAUGAGGAUCACCCAUGUAGGACCGGGUGUCCUAUCG	57.6 nM
